Measurements taken from article PMC3813429.

Molecular target: HaALP, membrane bound alkaline phosphatase of Helicoverpa armigera (Helicoverpa armigera (endogenous in larval midgut))
Experiment: SPR

**Q.** Cry1Ac R511A (domain or fragment) was tested. Which Kd did it give?
**A.** The Kd was 0.032 µM.

**Q.** What about the koff of the same substance?
**A.** Its koff is 0.00179 s⁻¹.

**Q.** What about the kon of the same substance?
**A.** Its kon is 55800 M⁻¹ s⁻¹.

**Q.** For Cry1Ac N510A (domain or fragment), which Kd is on record?
**A.** Its Kd is 0.0584 µM.

**Q.** And the koff?
**A.** Its koff is 0.00136 s⁻¹.

**Q.** And the kon?
**A.** Its kon is 23200 M⁻¹ s⁻¹.

**Q.** What does the source list for Cry1Ac W545A (domain or fragment)?
**A.** Kd: 7.15 µM; koff: 0.00688 s⁻¹; kon: 963 M⁻¹ s⁻¹

**Q.** For Cry1Ac Y513A (domain or fragment), which Kd is on record?
**A.** The Kd was 0.223 µM.

**Q.** What about the koff of the same substance?
**A.** Its koff is 0.00147 s⁻¹.

**Q.** And the kon?
**A.** The kon was 6610 M⁻¹ s⁻¹.

**Q.** What does the source list for Cry1Ac Q509A (domain or fragment)?
**A.** Kd: 0.0296 µM; koff: 0.00571 s⁻¹; kon: 193000 M⁻¹ s⁻¹

**Q.** With “Cry1Ac tetra mutant (Q509A-N510A-R511A.Y513A) (domain or fragment)” as the substance, how does the Kd read?
**A.** Its Kd is 2.42 µM.

**Q.** What about the koff of the same substance?
**A.** The koff was 0.000184 s⁻¹.

**Q.** And the kon?
**A.** Its kon is 75 M⁻¹ s⁻¹.

**Q.** How did the Kd turn out when “Cry1Ac triple mutant (Q509A-N510A-R511A) (domain or fragment)” was run?
**A.** Its Kd is 0.262 µM.

**Q.** What about the koff of the same substance?
**A.** Its koff is 0.00269 s⁻¹.

**Q.** What about the kon of the same substance?
**A.** The kon was 10200 M⁻¹ s⁻¹.

Molecular target: HaALP, membrane bound alkaline phosphatase of Helicoverpa armigera (Helicoverpa armigera (endogenous in larval midgut))
Experiment: not given

**Q.** How did the LC50, insect bioassay on H. armigera neonates (toxin on artificial diet surface, 5 days) turn out when Cry1Ac W545A (domain or fragment) was run?
**A.** The LC50, insect bioassay on H. armigera neonates (toxin on artificial diet surface, 5 days) was 34.1 µg/mL.
